In assay [1] the target is PGLYRP1-mIgG1-Fc (not stated | mouse). The experiment in a line: SDS-PAGE and Western blot with or without reducing agent. A general note: In western blotting, separated proteins are transferred to a membrane and probed.
The target of assay [2] is mouse IgG2a-Fc (Fc only) (mouse). The assay is described as above.

One may read the stoichiometry N as the number of molecules, sites or subunits per partner or assembly.

Consider PGLYRP1-mIgG1-Fc (Fc fusion), for which, in assay [1], the stoichiometry N was determined as 2.
In assay [2], “mouse IgG2a-Fc (Fc only) (domain or fragment)” gave a stoichiometry N of 2.

The values above are taken from article PMC10102533.
